Results taken from US20050059803A1 (ARIAD GENE THERAPEUTICS, published 2005).

Biological target: LexA-FKBP12 fusion protein (human FKBP12, bait plasmid pIC504) (human, UniProt P62942 1-104)
Experiment: cell-based or functional assay

LexA-FKBP12 fusion protein (human FKBP12, bait plasmid pIC504), sequence (P62942 other isoform, or with tags, fused parts or gaps limits assumed): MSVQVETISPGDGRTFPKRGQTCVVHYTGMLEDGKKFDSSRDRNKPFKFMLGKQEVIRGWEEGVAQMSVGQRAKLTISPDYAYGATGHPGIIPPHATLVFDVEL

B1: human RAPT1 rapamycin-binding domain fused to the VP16 activation domain (other)
chain: VSEELIRVAILWHEMWHEGLEEASRLYFGERNVKGMFEVLEPLHAMMERGPQTLKETSFNQAYGRDLMEAQEWCRKYMKSGNVKDLTQAWDLYYHVFRRISKQLPQLTSLELQYVSPKLLMCRDLELAVPGTYDPNQPIIRIQSIAPSLQVITSKQRPRKLTLMGSNGHEFVF
In the case of B1, the “β-galactosidase activity (lacZ reporter, chemiluminescent substrate)” value is reported as roughly 1000 fold.
